Data taken from publication PMC10185811.
Substitutions are numbered along the chain they refer to.

T1: GST-NUB1L, Q9Y5A7-1
T1 chain: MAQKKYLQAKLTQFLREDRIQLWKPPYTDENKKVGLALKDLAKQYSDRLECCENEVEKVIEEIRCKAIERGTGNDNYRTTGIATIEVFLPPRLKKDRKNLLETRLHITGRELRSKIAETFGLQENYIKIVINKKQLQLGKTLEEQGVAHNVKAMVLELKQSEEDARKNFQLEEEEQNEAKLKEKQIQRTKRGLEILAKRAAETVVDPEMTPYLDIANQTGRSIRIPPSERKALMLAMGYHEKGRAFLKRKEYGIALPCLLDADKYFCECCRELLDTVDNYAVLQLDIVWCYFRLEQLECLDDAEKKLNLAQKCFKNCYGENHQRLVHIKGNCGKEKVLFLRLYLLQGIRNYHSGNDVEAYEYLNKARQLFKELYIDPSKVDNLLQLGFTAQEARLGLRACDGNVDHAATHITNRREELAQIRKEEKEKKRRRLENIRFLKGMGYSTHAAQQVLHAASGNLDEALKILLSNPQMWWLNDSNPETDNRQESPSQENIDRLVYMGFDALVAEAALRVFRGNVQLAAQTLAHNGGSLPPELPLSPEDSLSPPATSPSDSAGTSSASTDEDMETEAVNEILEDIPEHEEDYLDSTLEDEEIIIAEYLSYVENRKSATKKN

T2: GST-RAD23, P54727
T2 chain: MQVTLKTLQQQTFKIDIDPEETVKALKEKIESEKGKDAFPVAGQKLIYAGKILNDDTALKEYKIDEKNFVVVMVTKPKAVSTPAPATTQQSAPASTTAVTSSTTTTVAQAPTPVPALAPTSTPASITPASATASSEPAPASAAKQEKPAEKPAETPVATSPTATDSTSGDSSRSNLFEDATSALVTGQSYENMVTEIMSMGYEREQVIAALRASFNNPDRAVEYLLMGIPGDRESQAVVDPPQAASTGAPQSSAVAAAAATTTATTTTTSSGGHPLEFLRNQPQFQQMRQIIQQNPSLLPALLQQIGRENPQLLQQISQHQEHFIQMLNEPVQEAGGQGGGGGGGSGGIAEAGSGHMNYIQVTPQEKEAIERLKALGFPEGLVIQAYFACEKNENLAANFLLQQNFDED

B1: His6-RPN1 WT, Q13200 T2 (protein)
chain: MEEGGRDKAPVQPQQSPAAAPGGTDEKPSGKERRDAGDKDKEQELSEEDKQLQDELEMLVERLGEKDTSLYRPALEELRRQIRSSTTSMTSVPKPLKFLRPHYGKLKEIYENMAPGENKRFAADIISVLAMTMSGERECLKYRLVGSQEELASWGHEYVRHLAGEVAKEWQELDDAEKVQREPLLTLVKEIVPYNMAHNAEHEACDLLMEIEQVDMLEKDIDENAYAKVCLYLTSCVNYVPEPENSALLRCALGVFRKFSRFPEALRLALMLNDMELVEDIFTSCKDVVVQKQMAFMLGRHGVFLELSEDVEEYEDLTEIMSNVQLNSNFLALARELDIMEPKVPDDIYKTHLENNRFGGSGSQVDSARMNLASSFVNGFVNAAFGQDKLLTDDGNKWLYKNKDHGMLSAAASLGMILLWDAKGGLAAIDKYLYSSEDYIKSGALLACGIVNSGVRNECDPALALLSDYVLHNSNTMRLGSIFGLGLAYAGSNREDVLTLLLPVMGDSKSSMEVAGVTALACGMIAVGSCNGDVTSTILQTIMEKSETELKDTYARWLPLGLGLNHLGKGEAIEAILAALEVVSEPFRSFANTLVDVCAYAGSGNVLKVQQLLHICSEHFDSKEKEEDKDKKEKKDKDKKEAPADMGAHQGVAVLGIALIAMGEEIGAEMALRTFGHLLRYGEPTLRRAVPLALALISVSNPRLNILDTLSKFSHDADPEVSYNSIFAMGMVGSGTNNARLAAMLRQLAQYHAKDPNNLFMVRLAQGLTHLGKGTLTLCPYHSDRQLMSQVAVAGLLTVLVSFLDVRNIILGKSHYVLYGLVAAMQPRMLVTFDEELRPLPVSVRVGQAVDVVGQAGKPKTITGFQTHTTPVLLAHGERAELATEEFLPVTPILEGFVILRKNPNYDL
B2: His6-RPN1 WT, Q13200 T1; T2 (protein)
chain: B1 chain with D533A, Q540R, E544R

Legend:
GST-NUB1L, Q9Y5A7-1 = biological target: T1, GST-NUB1L, Q9Y5A7-1; experiment: Octet (BLI); details: chain shown with the change; GST-NUB1L on the sensor; His6-RPN1 variant in solution; parent: est. 0.58; read off a plot
GST-RAD23, P54727 = biological target: T2, GST-RAD23, P54727; experiment: Octet (BLI); details: chain shown with the change; GST-RAD23 on the sensor; GST control curve in the same panel reaches est. 0.13 nm; read off a plot

| response (GST-NUB1L, Q9Y5A7-1) [nm] | response (GST-RAD23, P54727) [nm] | Binder |
| --- | --- | --- |
| 0.28 | 0.25 | B1 |
| 0.18 |  | B2 |
